Target: WT His-BRCA1(1-500)-BARD1(27-327) heterodimer (UniProt P38398 1-500; Q99728 27-327)
Assay: pull-down

Sequence of WT His-BRCA1(1-500)-BARD1(27-327) heterodimer (P38398 1-500, chain 1 of 2): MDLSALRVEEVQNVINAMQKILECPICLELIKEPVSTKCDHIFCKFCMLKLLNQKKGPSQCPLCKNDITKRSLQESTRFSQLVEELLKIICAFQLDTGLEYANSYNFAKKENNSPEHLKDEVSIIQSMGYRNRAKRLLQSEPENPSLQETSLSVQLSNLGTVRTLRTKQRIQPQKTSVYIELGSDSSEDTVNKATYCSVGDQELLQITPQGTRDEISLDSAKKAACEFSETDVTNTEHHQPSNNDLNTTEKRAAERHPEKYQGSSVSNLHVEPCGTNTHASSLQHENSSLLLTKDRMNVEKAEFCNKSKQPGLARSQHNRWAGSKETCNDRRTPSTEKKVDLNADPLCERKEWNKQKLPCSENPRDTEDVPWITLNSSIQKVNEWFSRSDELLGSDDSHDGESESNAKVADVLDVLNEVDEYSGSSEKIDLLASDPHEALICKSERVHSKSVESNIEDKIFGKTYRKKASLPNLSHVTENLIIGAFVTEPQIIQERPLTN
Sequence of WT His-BRCA1(1-500)-BARD1(27-327) heterodimer (Q99728 27-327, chain 2 of 2): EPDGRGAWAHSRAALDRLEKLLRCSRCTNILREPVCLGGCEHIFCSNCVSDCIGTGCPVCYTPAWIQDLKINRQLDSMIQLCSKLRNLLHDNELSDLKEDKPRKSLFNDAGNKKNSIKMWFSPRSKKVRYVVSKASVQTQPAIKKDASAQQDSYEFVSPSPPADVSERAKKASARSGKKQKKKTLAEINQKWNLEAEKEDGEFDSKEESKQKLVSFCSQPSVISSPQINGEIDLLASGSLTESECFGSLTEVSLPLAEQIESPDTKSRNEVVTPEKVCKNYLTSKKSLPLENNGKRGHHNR

B1: Human recombinant RAD51 (Abcam) (natural protein)
chain: MAMQMQLEANADTSVEEESFGPQPISRLEQCGINANDVKKLEEAGFHTVEAVAYAPKKELINIKGISEAKADKILAEAAKLVPMGFTTATEFHQRRSEIIQITTGSKELDKLLQGGIETGSITEMFGEFRTGKTQICHTLAVTCQLPIDRGGGEGKAMYIDTEGTFRPERLLAVAERYGLSGSDVLDNVAYARAFNTDHQTQLLYQASAMMVESRYALLIVDSATALYRTDYSGRGELSARQMHLARFLRMLLRLADEFGVAVVITNQVVAQVDGAAMFAADPKKPIGGNIIAHASTTRLYLRKGRGETRICKIYDSPCLPEAEAMFAINADGVGDAKD
Does B1 bind?
Result: binds

From doi:10.1101/478511 (bioRxiv, 2018)
